Columns and labels:
AAV2 capsids = experiment: ELISA cross-reactivity, AAV2 (FIG. 3A); format: binding
Source text: (§1) The control sequence (i.e. the human polycystic kidney domain 2, which is known to bind to AAV9 capsids) is labeled “C” in each graph.
(§2) Seven of the variants of Table C were screened for cross-reactivity to AAV2, AAV5, and AAV8.

AAV9 full capsids = experiment: pH dependence of binding by ELISA (acidic vs neutral elution); settings: purified polypeptide 1 μM; citric acid pH 3, 4 or 5 vs TBS pH 7.2; FIG. 4
Description: The pH dependence of binding of the polypeptides of Table C was evaluated by ELISA. Initially, the bacterial lysates of cultures expressing the polypeptides of Table C were incubated in a citric acid solution (pH 4.0) containing AAV9 capsids for 30 minutes. Subsequently, the solution was washed in Tris-Buffered Saline (TBS), which contained 0.05% TWEEN® 20, at neutral pH.
The five polypeptides were expressed and purified via a C-terminal 6X-His tag. The purified polypeptides (1 μM) were incubated with an ELISA plate that was coated with AAV9 full capsids. The polypeptides were eluted from the ELISA plate with a citric acid solution at pH 3, 4, or 5 (acidic elution) or in the TBS solution described above at pH 7.2 (neutral elution). The ELISA signal from the protein that was still bound to the AAV9 capsid was measured. The post elution % ligand remaining bound to AAV9 was calculated by dividing the signal after pH 3, 4, or 5 incubation by the signal after pH 7.2 incubation, and multiplying by 100.

[1] = test system: AAV full capsids vs AAV empty capsids; settings: cited from earlier work
AAV5 capsids = experiment: ELISA cross-reactivity, AAV5 (FIG. 3B); format: binding
Source text: as §1, §2

AAV8 capsids = experiment: ELISA cross-reactivity, AAV8 (FIG. 3C); format: binding
Source text: as §1, §2

AAV9 capsids = settings: cited from earlier work

B1: PKD2 control protein: N-terminal His-tagged polycystic kidney domain 2 (PKD2 domain) from the AAV receptor, known to bind AAV9 capsids (protein)
chain: IAIVSPQFQEISLPTTSTVIDGSQSTDDDKIVQYHWEELKGPLREEKISEDTAILKLSKLVPGNYTFSLTVVDSDGATNSTTANLTVNKA
modifications: left off: small tags and cut ends
In the case of B1, the “binding / cross-reactivity to AAV2” value (AAV2 capsids) is given as “cross reacted strongly”, the “AAV9 binding signal after acidic elution compared to neutral elution” value (AAV9 full capsids) is given as “reduced AAV9 binding signal” and the “discrimination between full and empty capsids (known)” value [1] is given as “no discrimination between full and empty capsids”. For the same molecule, the “binding / cross-reactivity to AAV5” value (AAV5 capsids) was “bound poorly or very weakly”, the “binding / cross-reactivity to AAV8” value (AAV8 capsids) was “bound poorly or very weakly” and the “affinity to AAV9 capsids (known)” value (AAV9 capsids) was “known affinity to AAV9 capsids”.
